Results published in patent US20240383984A1 (Genentech, published 2024).

T1: human FcRH5 protein fragment (soluble) (human, UniProt Q96RD9 16-851)
T1 construct: whole entry named; also called soluble human FcRH5; Human FcRH5 (BIACORE analyte)
T1 sequence: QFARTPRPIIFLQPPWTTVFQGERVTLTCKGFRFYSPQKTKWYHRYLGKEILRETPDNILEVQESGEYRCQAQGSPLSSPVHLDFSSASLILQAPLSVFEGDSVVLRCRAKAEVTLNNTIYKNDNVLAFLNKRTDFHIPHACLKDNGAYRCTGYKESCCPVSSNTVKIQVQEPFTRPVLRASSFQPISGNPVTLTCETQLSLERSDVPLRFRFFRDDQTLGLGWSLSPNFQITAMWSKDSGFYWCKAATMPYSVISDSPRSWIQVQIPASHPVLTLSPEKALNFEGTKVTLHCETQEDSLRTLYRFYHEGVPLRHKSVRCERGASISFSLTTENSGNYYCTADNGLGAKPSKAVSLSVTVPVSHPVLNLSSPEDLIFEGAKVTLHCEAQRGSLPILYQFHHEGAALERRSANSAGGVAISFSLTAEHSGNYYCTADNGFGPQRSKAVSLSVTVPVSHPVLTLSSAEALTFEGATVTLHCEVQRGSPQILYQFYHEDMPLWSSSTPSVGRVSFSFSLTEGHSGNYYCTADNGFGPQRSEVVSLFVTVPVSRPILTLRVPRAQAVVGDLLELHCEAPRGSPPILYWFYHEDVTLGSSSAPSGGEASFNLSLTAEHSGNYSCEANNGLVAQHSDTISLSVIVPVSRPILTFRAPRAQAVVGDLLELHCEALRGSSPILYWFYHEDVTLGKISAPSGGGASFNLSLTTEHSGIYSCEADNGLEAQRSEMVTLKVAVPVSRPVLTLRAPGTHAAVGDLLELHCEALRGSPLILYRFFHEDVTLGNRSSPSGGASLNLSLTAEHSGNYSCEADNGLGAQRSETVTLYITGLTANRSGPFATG


molecular target: T1, human FcRH5 protein fragment (soluble); experiment: BIACORE, human IgG1, soluble human FcRH5

Binder | Fold improvement over hu1G7.v1 [fold] | Kd [nM]
1G7.v1E (antibody, human IgG1, V domains shown, human IgG1 with the light chain of hu1G7.v1; also called E (hu1G7.v1 heavy chain V37Y)) VH: EVQLVESGPGLVKPSETLSLTCTVSGFSLTRFGVHWYRQPPGKGLEWLGVIWRGGSTDYNAAFMSRLTISKDNSKNQVSLKLSSVTAADTAVYYCSNHYYGSSDYALDNWGQGTLVTVSS VL: DIQMTQSPSSLSASVGDRVTITCKASQDVSNIVVWFQQKPGKSPKLLIYSASYRYTGVPSRFSGSGSGTDFTLTISSLQPEDFATYYCQQHYSSPYTFGQGTKVEIK | 1.3 | 11
1G7.v1L (antibody, human IgG1, V domains shown, human IgG1 with the light chain of hu1G7.v1; also called L (hu1G7.v1 heavy chain S100P)) VH: EVQLVESGPGLVKPSETLSLTCTVSGFSLTRFGVHWVRQPPGKGLEWLGVIWRGGSTDYNAAFMSRLTISKDNSKNQVSLKLSSVTAADTAVYYCSNHYYGSPDYALDNWGQGTLVTVSS VL: DIQMTQSPSSLSASVGDRVTITCKASQDVSNIVVWFQQKPGKSPKLLIYSASYRYTGVPSRFSGSGSGTDFTLTISSLQPEDFATYYCQQHYSSPYTFGQGTKVEIK | 3 | 4.8
1G7.v1F (antibody, human IgG1, V domains shown, human IgG1 with the light chain of hu1G7.v1; also called F (hu1G7.v1 heavy chain A61P)) VH: EVQLVESGPGLVKPSETLSLTCTVSGFSLTRFGVHWVRQPPGKGLEWLGVIWRGGSTDYNPAFMSRLTISKDNSKNQVSLKLSSVTAADTAVYYCSNHYYGSSDYALDNWGQGTLVTVSS VL: DIQMTQSPSSLSASVGDRVTITCKASQDVSNIVVWFQQKPGKSPKLLIYSASYRYTGVPSRFSGSGSGTDFTLTISSLQPEDFATYYCQQHYSSPYTFGQGTKVEIK | 1.2 | 11.7
1G7.v1H (antibody, human IgG1, V domains shown, human IgG1 with the light chain of hu1G7.v1; also called H (hu1G7.v1 heavy chain S65D)) VH: EVQLVESGPGLVKPSETLSLTCTVSGFSLTRFGVHWVRQPPGKGLEWLGVIWRGGSTDYNAAFMDRLTISKDNSKNQVSLKLSSVTAADTAVYYCSNHYYGSSDYALDNWGQGTLVTVSS VL: DIQMTQSPSSLSASVGDRVTITCKASQDVSNIVVWFQQKPGKSPKLLIYSASYRYTGVPSRFSGSGSGTDFTLTISSLQPEDFATYYCQQHYSSPYTFGQGTKVEIK | 1 | 15
1G7.v1G (antibody, human IgG1, V domains shown, human IgG1 with the light chain of hu1G7.v1; also called G (hu1G7.v1 heavy chain M64G)) VH: EVQLVESGPGLVKPSETLSLTCTVSGFSLTRFGVHWVRQPPGKGLEWLGVIWRGGSTDYNAAFGSRLTISKDNSKNQVSLKLSSVTAADTAVYYCSNHYYGSSDYALDNWGQGTLVTVSS VL: DIQMTQSPSSLSASVGDRVTITCKASQDVSNIVVWFQQKPGKSPKLLIYSASYRYTGVPSRFSGSGSGTDFTLTISSLQPEDFATYYCQQHYSSPYTFGQGTKVEIK | 1 | 14.4

More lines, now with the values ahead:

Fold improvement over hu1G7.v1 [fold] | Kd [nM] | Binder
1 | 15 | 1G7.v1K (antibody, human IgG1, V domains shown, human IgG1 with the light chain of hu1G7.v1; also called K (hu1G7.v1 heavy chain S82bD)) VH: EVQLVESGPGLVKPSETLSLTCTVSGFSLTRFGVHWVRQPPGKGLEWLGVIWRGGSTDYNAAFMSRLTISKDNSKNQVSLKLSDVTAADTAVYYCSNHYYGSSDYALDNWGQGTLVTVSS VL: DIQMTQSPSSLSASVGDRVTITCKASQDVSNIVVWFQQKPGKSPKLLIYSASYRYTGVPSRFSGSGSGTDFTLTISSLQPEDFATYYCQQHYSSPYTFGQGTKVEIK
1 | 15.3 | 1G7.v1J (antibody, human IgG1, V domains shown, human IgG1 with the light chain of hu1G7.v1; also called J (hu1G7.v1 heavy chain K81M)) VH: EVQLVESGPGLVKPSETLSLTCTVSGFSLTRFGVHWVRQPPGKGLEWLGVIWRGGSTDYNAAFMSRLTISKDNSKNQVSLMLSSVTAADTAVYYCSNHYYGSSDYALDNWGQGTLVTVSS VL: DIQMTQSPSSLSASVGDRVTITCKASQDVSNIVVWFQQKPGKSPKLLIYSASYRYTGVPSRFSGSGSGTDFTLTISSLQPEDFATYYCQQHYSSPYTFGQGTKVEIK
0.9 | 16.2 | 1G7.v1I (antibody, human IgG1, V domains shown, human IgG1 with the light chain of hu1G7.v1; also called I (hu1G7.v1 heavy chain S65P)) VH: EVQLVESGPGLVKPSETLSLTCTVSGFSLTRFGVHWVRQPPGKGLEWLGVIWRGGSTDYNAAFMPRLTISKDNSKNQVSLKLSSVTAADTAVYYCSNHYYGSSDYALDNWGQGTLVTVSS VL: DIQMTQSPSSLSASVGDRVTITCKASQDVSNIVVWFQQKPGKSPKLLIYSASYRYTGVPSRFSGSGSGTDFTLTISSLQPEDFATYYCQQHYSSPYTFGQGTKVEIK
